Patent publication US11352401

Biological target: T1, HLA-A*24 (human)
T1 construct: MHC monomer made peptide-receptive by UV cleavage of a UV-sensitive ligand; also called peptide-receptive MHC class I monomer
Test: UV peptide-exchange ELISA; ++++ = yield >75%
Source text: Candidate peptides for T cell based therapies according to the present invention were further tested for their MHC binding capacity (affinity). The individual peptide-MHC complexes were produced by UV-ligand exchange, where a UV-sensitive peptide is cleaved upon UV-irradiation, and exchanged with the peptide of interest as analyzed. Only peptide candidates that can effectively bind and stabilize the peptide-receptive MHC molecules prevent dissociation of the MHC complexes. To determine the yield of the exchange reaction, an ELISA was performed based on the detection of the light chain (β2m) of stabilized MHC complexes. The assay was performed as generally described in Rodenko et al. (Rodenko et al., 2006).
96 well MAXISorp plates (NUNC) were coated over night with 2 ug/ml streptavidin in PBS at room temperature, washed 4× and blocked for 1 h at 37° C. in 2% BSA containing blocking buffer. […] Peptide-MHC monomers of the UV-exchange reaction were diluted 100-fold in blocking buffer. Samples were incubated for 1 h at 37° C., washed four times, incubated with 2 ug/ml HRP conjugated anti-β2m for 1h at 37° C., washed again and detected with TMB solution that is stopped with […]. Absorption was measured at 450 nm.

| Binder | peptide exchange yield [%] |
| --- | --- |
| PYTNYTFDF [PYTNYTFDF (SEQ ID NO: 70)] | > 75 |
| LYISEVRNI [LYISEVRNI (SEQ ID NO: 49)] | > 75 |
| IYQQIIQTY [IYQQIIQTY (SEQ ID NO: 68)] | > 75 |
| KYMKIFHKF [KYMKIFHKF (SEQ ID NO: 52)] | > 75 |
| VYMIEPLEL [VYMIEPLEL (SEQ ID NO: 56)] | > 75 |
| IMPEKFEFW [IMPEKFEFW (SEQ ID NO: 69)] | > 75 |
| VFIDHPVHLKF [VFIDHPVHLKF (SEQ ID NO: 48)] | > 75 |
| KYADYFLEV [KYADYFLEV (SEQ ID NO: 47)] | > 75 |
| LYQEILAQL [LYQEILAQL (SEQ ID NO: 62)] | > 75 |
| SYPELVKMVW [SYPELVKMVW (SEQ ID NO: 50)] | > 75 |
| NYIYSISVF [NYIYSISVF (SEQ ID NO: 75)] | > 75 |
| YPSIIQEF [YPSIIQEF (SEQ ID NO: 57)] | > 75 |
| VYDQYFITL [VYDQYFITL (SEQ ID NO: 74)] | > 75 |
| VMPSDSFFF [VMPSDSFFF (SEQ ID NO: 63)] | > 75 |
| RYPGKFYRV [RYPGKFYRV (SEQ ID NO: 67)] | > 75 |
| SYMVLAPVF [SYMVLAPVF (SEQ ID NO: 71)] | > 75 |
| AFPVTSIFHTF [AFPVTSIFHTF (SEQ ID NO: 46)] | > 75 |
| IYFRDSSFL [IYFRDSSFL (SEQ ID NO: 66)] | > 75 |
| YYSPLRDLL [YYSPLRDLL (SEQ ID NO: 80)] | > 75 |
| RYEGILYTI [RYEGILYTI (SEQ ID NO: 72)] | > 75 |

The remaining lines, values ahead:

| peptide exchange yield [%] | Binder |
| --- | --- |
| > 75 | KYITNLEDL [KYITNLEDL (SEQ ID NO: 53)] |
| > 75 | AYLSAVGTF [AYLSAVGTF (SEQ ID NO: 44)] |
| > 75 | TWFPKTPMLF [TWFPKTPMLF (SEQ ID NO: 78)] |
| > 75 | KYFVPPQLF [KYFVPPQLF (SEQ ID NO: 45)] |
| > 75 | LYPEGLRLL [LYPEGLRLL (SEQ ID NO: 81)] |
| > 75 | RWMDQRLVF [RWMDQRLVF (SEQ ID NO: 55)] |
| > 75 | QFAAPLRGIYF [QFAAPLRGIYF (SEQ ID NO: 58)] |
| > 75 | NYAIFDEGHML [NYAIFDEGHML (SEQ ID NO: 64)] |
| > 75 | VYPASKMFPFI [VYPASKMFPFI (SEQ ID NO: 65)] |
| > 75 | RYLADLPTL [RYLADLPTL (SEQ ID NO: 79)] |
